{
  "source": "paper PMC6718402",
  "about": "“The structural basis of lipid scrambling and inactivation in the endoplasmic reticulum scramblase TMEM16K” (Nature Communications, 2019)",
  "target": "the molecule itself",
  "test": "crystal structure; TMEM16K purified in UDM/CHS, crystallised in lipidic cubic phase (MAG 7.9; 0.1 M MES pH 6.0, 0.1 M NaCl, 0.1 M CaCl2, 30% PEG300) and by sitting drop vapour diffusion (0.1 M HEPES pH 7.0, 0.1 M calcium acetate, 22% PEG400); open groove conformation",
  "data": [
    {"protein": "human TMEM16K (anoctamin-10), full length (natural protein, UniProt Q9NW15-1 1-660, looked up, The tag was removed with TEV protease before size exclusion, so residues of the TEV site may remain at the C-terminus; Modelled residues: Ser14-Gln639 (LCP crystal), Ser13-Lys641 (2 mM Ca2+ cryo-EM); the purification is described as similar to that for crystallisation (Sf9); also called hTMEM16K; ANO10; source: Sf9 cells (baculovirus), purified in UDM/CHS (Talon resin, TEV cleavage, Superose 6 …)) MKVTLSALDTSESSFTPLVVIELAQDVKEETKEWLKNRIIAKKKDGGAQLLFRPLLNKYEQETLENQNLYLVGASKIRMLLGAEAVGLVKECNDNTMRAFTYRTRQNFKGFDDNNDDFLTMAECQFIIKHELENLRAKDEKMIPGYPQAKLYPGKSLLRRLLTSGIVIQVFPLHDSEALKKLEDTWYTRFALKYQPIDSIRGYFGETIALYFGFLEYFTFALIPMAVIGLPYYLFVWEDYDKYVIFASFNLIWSTVILELWKRGCANMTYRWGTLLMKRKFEEPRPGFHGVLGINSITGKEEPLYPSYKRQLRIYLVSLPFVCLCLYFSLYVMMIYFDMEVWALGLHENSGSEWTSVLLYVPSIIYAIVIEIMNRLYRYAAEFLTSWENHRLESAYQNHLILKVLVFNFLNCFASLFYIAFVLKDMKLLRQSLATLLITSQILNQIMESFLPYWLQRKHGVRVKRKVQALKADIDATLYEQVILEKEMGTYLGTFDDYLELFLQFGYVSLFSCVYPLAAAFAVLNNFTEVNSDALKMCRVFKRPFSEPSANIGVWQLAFETMSVISVVTNCALIGMSPQVNAVFPESKADLILIVVAVEHALLALKFILAFAIPDKPRHIQMKLARLEFESLEALKQQQMKLVTENLKEEPMESGKEKAT", "values": [
      {"measurement": "stoichiometry N", "result": 2}
    ]}
  ]
}
